The target of assay [1] is Human α1-acid glycoprotein (AGP) (human) (UniProt P02763). Put plainly: SPR (Biacore T100), SubB immobilised. For orientation: SPR reads the build-up and loss of mass on a sensor chip optically.
Assay [2] has the same target. The assay can be described thus: SPR (Biacore […]), […], single cycle kinetics.

Fold reduced binding affinity compared to bovine AGP and Kd data for one substance are collected here from patent publication US20260139240A1.

The Kd is a measure of binding affinity in units of concentration. A low value points to a tighter complex.

Turning to “Wild type SubB (subtilase cytotoxin B subunit) (from UniProt Q6EZC3 24-141) (other; other documents disagree on this pair)”, in assay [1], the fold reduced binding affinity compared to bovine AGP was 13 fold. Further, the Kd in assay [2] stood at 2120 nM.
